Experimental findings from patent US20030133912A1 (published 2003) are described below.

The target in assay [1] is T1, Human coxsackie-adenovirus receptor (CAR) expressed on CHO cells (human, UniProt P78310 20-365).
T1 construct: whole, on cells; also called hCAR; AdhCAR-transfected CHO cells
T1 sequence: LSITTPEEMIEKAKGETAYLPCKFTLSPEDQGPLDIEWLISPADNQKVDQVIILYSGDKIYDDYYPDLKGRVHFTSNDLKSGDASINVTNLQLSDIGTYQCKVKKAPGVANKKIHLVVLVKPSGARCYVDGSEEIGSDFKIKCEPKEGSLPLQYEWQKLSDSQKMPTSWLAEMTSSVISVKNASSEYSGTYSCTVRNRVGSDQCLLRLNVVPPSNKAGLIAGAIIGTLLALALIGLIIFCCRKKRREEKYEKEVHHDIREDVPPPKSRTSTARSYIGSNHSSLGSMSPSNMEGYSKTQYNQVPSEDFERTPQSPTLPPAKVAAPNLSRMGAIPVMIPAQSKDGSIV
In words: 3H-labelled virus binding to CHO cells with or without hCAR, 1 h on ice.

For assay [2], the target named is T2, Soluble human transferrin receptor, purified extracellular domain (human, UniProt P02786 89-760).
T2 construct: extracellular domain; Gift material; also called hTfR; soluble hTfR
In words: phage display panning on immobilised hTfR extracellular domain, three rounds.
Excerpt: Enzyme-linked immunosorbent assay (ELISA) plates were coated with soluble hTfR, and bound phage were eluted by a low-pH buffer. Eluted phage were amplified in E. coli K91 and subsequently screened again for binding to the immobilized hTfR. In separate experiments, bound phage were eluted with purified transferrin holoenzyme. Three rounds of screening-amplification were done for each type of elution.
Phage screening. Ten microliters of amplified nonapeptide phage library (a generous gift from Al Jesaitis, Montana State University) was screened against the purified extracellular domain of hTfR (kindly provided by Martin Lawrence, Harvard University) coated on 96-well microtiter plates in 100 μl of 0.05 M carbonate buffer (pH 9.6). In the first panning, hTfR was coated at 100 μg/ml. Subsequent pannings were done with decreasing concentrations of hTfR for increased stringency (10 and 1 μg/ml for the second and third pannings, respectively). Bound phage were eluted with low-acid buffer (0.1 M glycine, pH 2.2) or ligand (iron-loaded human transferrin; Sigma-Aldrich) in TBS buffer (50 mM Tris-Cl, pH 7.5; 150 mM NaCl). After three successive rounds of panning and amplification, clones were picked and sequenced as described elsewhere.

Assay [3] deals with T1, Human coxsackie-adenovirus receptor ….
The target in assay [4] is T2, Soluble human transferrin receptor, …. Nature of the assay: pull-down of fiber lysate with soluble hTfR on anti-hTfR antibody 128.1 beads, Western blot with 4D2.5. (In general: Immunoblotting shows a protein as a band on a membrane.)

T2 sequence (P02786 89-760): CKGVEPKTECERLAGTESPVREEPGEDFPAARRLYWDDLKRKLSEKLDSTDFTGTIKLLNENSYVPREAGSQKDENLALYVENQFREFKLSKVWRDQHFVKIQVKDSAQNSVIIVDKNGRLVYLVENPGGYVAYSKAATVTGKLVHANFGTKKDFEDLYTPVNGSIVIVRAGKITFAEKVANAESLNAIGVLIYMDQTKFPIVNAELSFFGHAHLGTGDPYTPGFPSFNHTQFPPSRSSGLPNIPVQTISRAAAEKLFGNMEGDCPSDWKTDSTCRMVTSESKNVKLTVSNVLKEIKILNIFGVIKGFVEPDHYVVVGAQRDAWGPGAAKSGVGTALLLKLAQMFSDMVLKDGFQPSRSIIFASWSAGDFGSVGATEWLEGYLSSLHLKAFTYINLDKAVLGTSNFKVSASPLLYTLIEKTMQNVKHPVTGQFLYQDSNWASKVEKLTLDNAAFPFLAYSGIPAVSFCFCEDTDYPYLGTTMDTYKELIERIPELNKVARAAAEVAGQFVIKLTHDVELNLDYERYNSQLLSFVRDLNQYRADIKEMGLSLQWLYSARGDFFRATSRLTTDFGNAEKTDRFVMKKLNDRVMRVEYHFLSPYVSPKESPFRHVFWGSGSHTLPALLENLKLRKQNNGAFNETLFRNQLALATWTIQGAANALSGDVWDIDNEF

B1: Adenovirus type 30 (Ad30) fiber on wild-type Ad30 virus (other)
chain: MSKRLRVEDDFNPVYPYGYARNQNIPFLTPPFVSSDGFKNFPPGVLSLKLADPIAITNGDVSLKVGGGLTVEQDSGNLSVNPKAPLQVGTDKKLELALAPPFDVRDNKLAILVGDGLKVIDRSISDLPGLLNYLVVLTGKGIGNEELKNDDGSNKGVGLCVRIGEGGGLTFDDKGYLVAWNNKHDIRTIWTTLDPSPNCKIDIEKDSKLTLVLTKCGSQILANVSLIIVNGKFKILNNKTDPSLPKSFNIKLLFDQNGVLLENSNIEKQYLNFRSGDSILPEPYKNAIGFMPNLLAYAKATTDQSKIYARNTIYGNIYLDNQPYNPVVIKITFNNEADSAYSITFNYSWTKDYDNIPFDSTSFTFSYIAQE
notes: Tested as 3H-labelled wild-type Ad30 virions; also called Ad30 wildtype; Ad30 (VR-273)
B1: in assay [1], the binding result is listed as “no binding”.
In the case of GKGPKWMR [Phage displaying peptide GKGPKWMR], in assay [2], the binding result is “binds”.
For the molecule AIAKKHKWN [Phage displaying peptide AIAKKHKWN], in assay [2], the binding result is “binds”.

B2: Adenovirus type 5 (Ad5) fiber, wild type (other)
chain: MKRARPSEDTFNPVYPYDTETGPPTVPFLTPPFVSPNGFQESPPGVLSLRLSEPLVTSNGMLALKMGNGLSLDEAGNLTSQNVTTVSPPLKKTKSNINLEISAPLTVTSEALTVAAAAPLMVAGNTLTMQSQAPLTVHDSKLSIATQGPLTVSEGKLALQTSGPLTTTDSSTLTITASPPLTTATGSLGIDLKEPIYTQNGKLGLKYGAPLHVTDDLNTLTVATGPGVTINNTSLQTKVTGALGFDSQGNMQLNVAGGLRIDSQNRRLILDVSYPFDAQNQLNLRLGQGPLFINSAHNLDINYNKGLYLFTASNNSKKLEVNLSTAKGLMFDATAIAINAGDGLEFGSPNAPNTNPLKTKIGHGLEFDSNKAMVPKLGTGLSFDSTGAITVGNKNNDKLTIWTTPAPSPNCRLNAEKDAKLTLVLTKCGSQILATVSVLAVKGSLAPISGTVQSAHLIIRFDENGVLLNNSFLDPEYWNFRNGDLTEGTAYTNAVGFMPNLSAYPKSHGKTAKSNIVSQVYLNGDKTKPVTLTITLNGTQETGDTTPSAYSMSFSWDWSGHNYINEIFATSSYTFSYIAQE
notes: also called Ad5GFP; Ad5RSVeGFP
With B2, the “fold increase in bound particles with CAR expression” value in assay [3] is 3.6 fold. Besides, the binding result in assay [4] is on record as “no binding”.
Regarding KWKLHGHIK [Phage displaying peptide KWKLHGHIK], the binding result in assay [2] is listed as “binds”.

B3: Chimeric Ad5/30 fiber (Ad5 tail, Ad30 shaft and knob) on virus Ad5GFPf30 (other)
chain: MKRARPSEDTFNPVYPYDTETGPPTVPFLTPPFVSPNGFQESPPGVLSLKLADPIAITNGDVSLKVGGGLTVEQDSGNLSVNPKAPLQVGTDKKLELALAPPFDVRDNKLAILVGDGLKVIDRSISDLPGLLNYLVVLTGKGIGNEELKNDDGSNKGVGLCVRIGEGGGLTFDDKGYLVAWNNKHDIRTIWTTLDPSPNCKIDIEKDSKLTLVLTKCGSQILANVSLIIVNGKFKILNNKTDPSLPKSFNIKLLFDQNGVLLENSNIEKQYLNFRSGDSILPEPYKNAIGFMPNLLAYAKATTDQSKIYARNTIYGNIYLDNQPYNPVVIKITFNNEADSAYSITFNYSWTKDYDNIPFDSTSFTFSYIAQE
notes: also called Ad5RSVeGFPf30; AdGFPf30
For B3, the binding result in assay [1] is recorded as “no binding”.
